Results as given in patent US6613506B1, “Compositions and methods for inhibiting human immunodeficiency virus infection by down-regulating human cellular genes” (Subsidiary No. 3, Inc., priority 2000, dated 2003).

B1: CF-128: GSE, SEQ ID NO:6, sense; NADH dehydrogenase ND4 subunit gene (nucleic acid, listed as Homo sapiens)
sense: TCCTAGTCCTCACAATCATGGCAAGCCAGCGCCACTTATCCAGTGAACCACTATCACGAAAAAAACTCTACCTCTCTATACTAATCTCCCTACAAATCTCATTAATTATAATATTCACAACCACAGA
B2: CF-319: GSE, SEQ ID NO:2, sense; NADH dehydrogenase ND6 subunit gene (nucleic acid, listed as Homo sapiens)
sense: GATCCTCCCGAATCAACCCTGACCCCTCTCCTTCATAAATTATTCAGCTTCCTACACTATTAAAGTTTACCACAACCACCACGCCATCATACTCCTTCAC
B3: CF-681: GSE, SEQ ID NO:85, antisense; FK506-binding protein A1 gene (nucleic acid, listed as Homo sapiens)
antisense: TGGGGGAAGGGTGCAGCAACGATTTCTCACCAAATCACTACACAGGACAGCAAAGGGGTGAGAAGGGGCTGAGGGAGGAAAAGCCAGGAAACTGAGATCAGCAGAGGGAGCCAAGCATCAAAAAACAGGAGATGCTGAAGCTGCGATGACCAGCATCATTTTCTTAAGAGAACATTCAAGGATTTGTCATGATGGCTGGGCTTTCACTTGGTGTTAAGTCTACAAACAGCACCTTCAATTGGAACTGTCAATTAAAGTTCTTAAGATTTAGGAAGTGGTGGAGCTTGGAAAGTTATGAGATTACAAAATTTCTGAAAGTC
B4: CF-025: GSE, SEQ ID NO:5, antisense; NADH dehydrogenase ND2 subunit gene (nucleic acid, listed as Homo sapiens)
antisense: GAAGAAGCAGGCCGGATGTCAGAGGGGTGCCTTGGGTAACCTCTGGGACTCAGAAGTGAAAGGGGGCTATTCCTAGTTTTATTGCTATAGCCATTATGATTATTAATGATGAGTAT
B5: CF-117: GSE, SEQ ID NO:4, antisense; NADH dehydrogenase ND6 subunit gene (nucleic acid, listed as Homo sapiens)
antisense: GTGAAAGAGTATGATGGGGTGGTGGTTGTCGTAAACTTTAATAGTGTAGGAAGCTGAATAATTTATAAAGGAGAGGGGACAGGGTTGATTCGGGAGGATC
B6: CF-101: GSE, SEQ ID NO:3, sense; NADH dehydrogenase ND2 subunit gene (nucleic acid, listed as Homo sapiens)
sense: CATCAGCCCTTCTTAACATCTACTTCTACCTACGCCTAATCTACTCCACCTCAATCACACTACTCCCCATATCTAACAACGTAAAAATAAAATGACAGTTTGAGCATACAAAACCCACCCCATTCCTCCCCACACTCATCGCC

Columns and labels:
[1] = tested on: latent HIV provirus in OM10.1 cells; test: Induction of latent HIV provirus by TNF-α in OM10.1 cells (CD4 retention, p24); format: cell-based, HIV-1
Experimental: In order to determine p24 expression in HIV-infected cells, the cells were first washed twice with Assay Buffer. About 10^6 cells were suspended in 100 μL Assay Buffer, mixed with 2 mL of Ortho PermeaFix Solution (available from Ortho Diagnostics), and incubated for 40 min. at room temperature. After centrifugation at 1200 rpm for 4 min. at 4EC, the cells were resuspended in 2 mL Wash Buffer (500 mL PBS, 25 mL fetal bovine serum, 1.5% bovine serum albumin and 0.0055% EDTA) for 10 min. at room temperature. After centrifugation, the cells were resuspended in 50 ΦL Wash Buffer and mixed with 1:500 dilution of an IgG2a antibody for 20 min. at 4EC, followed by incubation with 5-10 ΦL of anti-p24 antibody (KC57-FITC, available from Coulter) for 30 min. at 4EC. The cells were then washed twice with Wash Buffer and analyzed by flow cytometry.
(§1) One strategy selected for GSEs which suppressed productive infection of cells by HIV. The second strategy selected for GSEs which suppressed induction of the latent provirus in OM10.1 cells. When OM10.1 cells were treated with TNF-α and stained with an antibody specific for the cell surface molecule CD4, a rapid loss of CD4 expression was observed (FIG. 1). In contrast, the vast majority of the uninduced OM10.1 cells retained CD4 expression. It is believed that activation of the latent virus in OM10.1 cells by TNF-α leads to the production of viral protein gp120, which binds to cytoplasmic CD4, thereby preventing its translocation to the cell surface. A diminution of CD4^+ OM10.1 cells also correlates with an increased production of viral protein p24 in the cells following TNF-α induction.
OM10.1 cells were cultured in RPMI 1640 glucose-free media prior to and during incubation with NADH dehydrogenase inhibitors and TNF-á induction. The inhibitors were added to the cells followed by TNF-á induction 1-2 hours later. The expression of CD4 by the cells was assessed by anti-CD4 antibody staining and flow cytometry after 24 hour incubation at 37° C.

HIV [2] = test: Selection of GSEs from RFE libraries using OM10.1 and CEM-ss cells (strategy not stated per GSE); format: cell-based, HIV-1; conditions: GSEs matching NADH dehydrogenase subunit genes
Experimental: The libraries prepared from HL-60 cells according to the method of Section A of this Example, were transfected into the packaging cell line, PA317 (ATCC CRL #9078), and converted into retrovirus for infection of OM10.1 cells. Libraries in pLNCX vector were co-cultured and selected with G418. Libraries in pLNGFRM vector were transduced by spinoculation (centrifugation of target cells at 1200×g for 90 min. in the presence of filtered retroviral supernatant; Dunn et al., 1999, Gene Therapy 6: 133-137) and selected by FACS sorting of the NGFR^+ population. After selection, the OM10.1 cells harboring the entire RFE library were induced with 10 U/mL of TNF-α at 37EC, and 24 hours later, were stained with an antibody and sorted for CD4 expression. Genomic DNA from the CD4^+ cells was purified and used for PCR amplification of inserts with the vector-derived primers. The amplified mixture was digested with EcoRI and BamHI and cloned back into the retroviral vector. The selection was repeated for additional rounds.
Additionally, a normalized RFE library made from HeLa cells was transferred into CEM-ss cells and the neo resistant population was infected with TCID50 of 3000/10^6 cells of HIV-1IIIB. This RFE library was represented by 50×10^6 independent recombinant clones. Four and seven days after infection, a purified anti-CD4 monoclonal antibody, L77 (available from Becton Dickinson), was added at 5 Φg/mL to prevent syncytia formation. Syncytia formation is thought to be prevented by blocking the interaction between gp120 expressed on the surface of an infected cell and CD4 on the surface of an uninfected cell. […] At 10-12 days after infection, CD4^+, p24^− cell population representing uninfected cells were sorted. Genomic DNA from the CD4^+, p24^− cells was purified and used for PCR amplification of inserts with the vector-derived primers. The amplified mixture was digested with EcoRI and BamHI and cloned back into the retroviral vector. The selection was repeated for additional rounds.
as §1
GSEs derived from cDNAs representing expressed human cellular genes were identified and isolated from a RFE library made from HL-60 cells using HIV provirus activation in OM10.1 cells as a read-out. Following transfection of the entire library into a packaging cell line, retrovirus carrying the library was used to infect OM10.1 cells by co-cultivation or spinoculation, and NGFR selection was performed to ensure the retention of the viral vector. When the infected cells were treated with TNF-α a small number of residual CD4^+ cells were detected by an anti-CD4 antibody and sorted by FACS. The GSEs contained in these cells were recovered by PCR amplification and their nucleotide sequences determined.
A total of twenty GSEs were isolated by the two aforementioned selection strategies using OM10.1 and CEM-ss cells. […] CF-315 was further shown to protect uninfected human T cells from a productive HIV-1 infection (FIG. 2). In this experiment, the retroviral vector, pLNGFRM, containing the CF-315 nucleic acid molecule was transferred into CEM-ss cells followed by NGFR selection. Vector containing plasmid DNA (denoted LNGFRM) was used as negative control. […]

HIV [3] = test: Selection of GSEs from PBMC library using CEM-ss cells; format: cell-based
Experimental: A cell-derived random fragment library (RFL) was constructed using cDNA from peripheral blood mononuclear cells (PBMC). Four buffy coats were obtained from four healthy blood donors and PBMCs were purified by Ficoll gradient centrifugation followed by stimulation with PHA (1 μg/mL). Cells were removed at 5, 10, and 24 hours after the addition of PHA and total RNA was isolated by Trizol extraction. All time points from all donors were then pooled. Polyadenylated mRNA was purified from the total RNA by passages through an oligo-dT column. cDNA was synthesized from the polyadenylated RNA with random primers using the Gibco Superscript Choice system for cDNA Synthesis (Gibco BRL, Rockville, Md.). The cDNA was normalized using the PCR-Select cDNA Subtraction kit (Clontech, Palo Alto, Calif.) based on the suppression subtractive hybridization methods of Diatchenko et al. (1996, Proc. Natl. Acad. Sci. USA 93, 6025-6030, 1996). The primers used for the normalization were: […]
The normalized random fragments were digested with XhoI and Sse83871, purified on quick spin columns (available from Qiagen, Valencia, Calif.) and ligated into the SseI/XhoI site of a bicistronic retroviral vector, EMCVNgfrMPBIN. This vector was based on LXSNgfr as described in Dunn el al. (1999, Gene Therapy 6:130-137). Modifications included substitution of the Moloney murine leukemia virus LTR with the hybrid LTR described by Baum et al., 1995, (J. Virol. 69:7541-7547) and replacement of the SV40 promoter with encephalomyocarditis virus (EMCV) internal ribosomal entry site isolated from the plasmid, pCITE (available from Amersham, Arlington Heights, Ill.). The ligation mix was then transformed into competent cells. The total plasmid was purified from approximately 50 million clones.
The PBMC library was screened using the methods described above in Section 1F. A total of 14 GSEs were isolated using CEM-ss cells. […] The complement of SEQ ID NO:69 is represented by SEQ ID NO:70. CF-675 (SEQ ID NO:71) is another GSE that has substantial sequence identity with a gene encoding human translationally controlled tumor protein 1 (GenBank Accession No. HUMCH13C4A). The complement of SEQ ID NO:71 is represented by SEQ ID NO:72. CF-679 (SEQ ID NO:83) is another GSE that has substantial sequence identity with a gene encoding human translationally controlled tumor protein 1 (GenBank Accession No. HUMCH13C4A). The complement of SEQ ID NO:83 is represented by SEQ ID NO:84. […] The complement of SEQ ID NO:75 is represented by SEQ ID NO:76. […] The complement of SEQ ID NO:79 is represented by SEQ ID NO:80. […] The complement of SEQ ID NO:67 is represented by SEQ ID NO:68. […] The complement of SEQ ID NO:63 is represented by SEQ ID NO:64. CF-675 (SEQ ID NO:65) is another GSE that has substantial sequence identity with a gene encoding alpha enolase protein. The complement of SEQ ID NO:65 is represented by SEQ ID NO:66. […] The complement of SEQ ID NO:73 is represented by SEQ ID NO:74. […] The complement of SEQ ID NO:81 is represented by SEQ ID NO:82. […] The complement of SEQ ID NO:85 is represented by SEQ ID NO:86. […] The complement of SEQ ID NO:89 is represented by SEQ ID NO:90. […] The complement of SEQ ID NO:91 is represented by SEQ ID NO:92. […] The complement of SEQ ID NO:93 is represented by SEQ ID NO:94. Another member of the cluster is CF-686 (SEQ ID NO:95), also having substantial sequence identity with a gene encoding cell surface heparin binding protein (Liu et al., ibid.). The complement of SEQ ID NO:95 is represented by SEQ ID NO:96.

Row | Molecule | HIV-suppressive activity of the GSE and active orientation (HIV [2]) | also measured
1 | CCC1(CCC(C)C)C(=O)NC(=O)NC1=O [amytal, Amytal] | – | inhibition of induction of latent HIV provirus (retention of CD4 expression) ([1]; TNF-α-induced OM10.1 cells, 24 hour incubation, FIG. 5 / FIG. 6): inhibited the induction of latent HIV provirus in OM10.1 cells in a dose-dependent manner; intracellular p24 levels ([1]; treated cells compared with untreated controls): suppressed intracellular p24 levels
2 | B1 | suppresses HIV infection in the sense orientation | –
3 | B2 | suppresses HIV replication in the sense orientation | –
4 | B3 | – | HIV-suppressive activity of the GSE and active orientation (HIV [3]): interferes with HIV replication as an antisense molecule
5 | B4 | suppresses HIV infection as an antisense molecule | –
6 | B5 | suppresses HIV activities as an antisense molecule | –
7 | B6 | exhibits its HIV-suppressive activities in the sense orientation | –
